Measured values as given in publication PMC9412862.

Assays:
[1] = molecular target: NS4b full-length (residues 1-249), C-terminal six-histidine tag (dengue virus serotype 1); experiment: BLI
[2] = molecular target: NS4b full-length (residues 1-249), C-terminal six-histidine tag (dengue virus serotype 1); experiment: SEC

## helicase domain of DENV NS3 (NS3Hel), residues 178-619, C-terminal 6-histidine tag (domain or fragment)
[1]
  Kd: 508 nM

## NS4b full-length (residues 1-249), C-terminal six-histidine tag (natural protein)
[2]
  stoichiometry N: 2
